# Patent US20200369770A1 (NANJING LEGEND BIOTECH, published 2020)
# T1: human TIGIT expressed on CHO cells (human, UniProt Q495A1 22-244)
# T1 construct: also called CHO cells expressing human TIGIT
# T1 sequence: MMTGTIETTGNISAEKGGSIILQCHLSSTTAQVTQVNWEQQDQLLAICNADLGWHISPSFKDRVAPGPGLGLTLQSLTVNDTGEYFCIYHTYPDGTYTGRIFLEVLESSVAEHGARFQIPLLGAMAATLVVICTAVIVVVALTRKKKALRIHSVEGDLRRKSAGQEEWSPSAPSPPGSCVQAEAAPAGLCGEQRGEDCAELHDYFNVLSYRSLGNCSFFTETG
# T2: His-tagged TIGIT protein (Homo sapiens (Human), UniProt Q495A1 22-141)
# T2 construct: SPR analyte; not shown: His tag
# T2 sequence: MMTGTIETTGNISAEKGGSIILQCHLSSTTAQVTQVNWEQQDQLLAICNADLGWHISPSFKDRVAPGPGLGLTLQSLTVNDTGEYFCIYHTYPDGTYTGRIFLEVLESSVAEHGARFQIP
# T3: human LAG-3 expressed on CHO cells (human, UniProt P18627 29-525)
# T3 construct: also called CHO cells expressing human LAG-3
# T3 sequence: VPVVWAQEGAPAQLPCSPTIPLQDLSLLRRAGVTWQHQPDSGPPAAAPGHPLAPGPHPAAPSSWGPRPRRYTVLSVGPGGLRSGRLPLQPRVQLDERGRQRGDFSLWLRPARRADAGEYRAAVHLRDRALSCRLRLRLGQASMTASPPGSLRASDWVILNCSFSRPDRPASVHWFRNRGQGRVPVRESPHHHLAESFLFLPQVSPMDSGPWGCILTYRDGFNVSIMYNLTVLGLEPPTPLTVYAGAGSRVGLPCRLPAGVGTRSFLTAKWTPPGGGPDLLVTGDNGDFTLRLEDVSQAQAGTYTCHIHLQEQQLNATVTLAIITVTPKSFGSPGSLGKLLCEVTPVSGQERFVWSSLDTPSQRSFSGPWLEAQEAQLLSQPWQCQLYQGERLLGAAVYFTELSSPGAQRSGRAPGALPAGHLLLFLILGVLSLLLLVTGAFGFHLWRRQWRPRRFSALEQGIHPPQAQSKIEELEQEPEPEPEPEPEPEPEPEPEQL
# T4: His-tagged LAG-3 protein (Homo sapiens (Human), UniProt P18627 29-450, limits assumed)
# T4 construct: SPR analyte; not shown: His tag
# T4 sequence: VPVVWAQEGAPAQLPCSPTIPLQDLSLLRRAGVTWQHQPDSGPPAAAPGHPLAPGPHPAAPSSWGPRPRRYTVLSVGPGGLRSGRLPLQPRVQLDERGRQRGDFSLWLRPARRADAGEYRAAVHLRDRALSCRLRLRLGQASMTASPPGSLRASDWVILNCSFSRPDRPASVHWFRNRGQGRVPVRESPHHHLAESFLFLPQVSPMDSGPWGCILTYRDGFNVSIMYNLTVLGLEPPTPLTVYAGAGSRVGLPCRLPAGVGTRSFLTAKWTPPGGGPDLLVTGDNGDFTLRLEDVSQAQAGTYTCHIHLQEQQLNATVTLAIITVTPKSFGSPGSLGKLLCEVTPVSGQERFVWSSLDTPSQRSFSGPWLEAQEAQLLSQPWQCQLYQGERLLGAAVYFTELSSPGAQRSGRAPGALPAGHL
# T5: LAG-3 Fc fusion protein having a biotin-label (Homo sapiens (Human), UniProt P18627 29-450, limits assumed, biotin label (site not stated))
# T5 construct: not shown: Fc
# T5 sequence: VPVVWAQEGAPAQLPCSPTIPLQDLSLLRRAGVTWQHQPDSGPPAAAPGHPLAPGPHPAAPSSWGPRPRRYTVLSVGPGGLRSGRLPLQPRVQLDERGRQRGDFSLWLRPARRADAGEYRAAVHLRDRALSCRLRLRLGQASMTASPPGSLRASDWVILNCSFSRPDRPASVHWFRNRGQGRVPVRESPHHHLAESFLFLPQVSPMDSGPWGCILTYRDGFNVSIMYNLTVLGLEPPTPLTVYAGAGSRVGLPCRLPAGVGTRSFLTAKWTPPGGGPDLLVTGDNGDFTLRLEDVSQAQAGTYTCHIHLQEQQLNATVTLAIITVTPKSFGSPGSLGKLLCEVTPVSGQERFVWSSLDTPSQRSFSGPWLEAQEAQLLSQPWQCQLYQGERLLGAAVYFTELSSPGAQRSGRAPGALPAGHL
# Legend:
# [1] = biological target: T1, human TIGIT expressed on CHO cells; assay: FACS on CHO cells expressing human TIGIT; column TIGIT / Cell binding (EC50 nM)
# Protocol: (§1) The mixture was equilibrated for 30 minutes at room temperature, and washed three times with FACS buffer (PBS containing 1% BSA). FITC-conjugated anti-human Fc antibody (Jackson ImmunoResearch) used as secondary antibody was then added and the mixture was incubated for 15 minutes at room temperature. Cells were washed again with FACS buffer and analyzed by flow cytometry. Data were analyzed with PRISM™ (GraphPad Software, San Diego, Calif.) using non-linear regression, and EC₅₀ values were calculated.
# His-tagged TIGIT protein = biological target: T2, His-tagged TIGIT protein; assay: SPR (BIACORE T200), His-tagged TIGIT as analyte over captured binder; column TIGIT / Affinity (nM)
# Text: Binding curves at different analyte concentrations were used to calculate the kinetic parameters kₒₙ, koff and Kd (FIGS. 13A-13K).
# [2] = biological target: T1, human TIGIT expressed on CHO cells; assay: FACS competition on CHO cells expressing human TIGIT, blocked ligand biotinylated hCD155 Fc; column TIGIT / Ligand competition (IC50 nM)
# Protocol: (§2) Each mixture was equilibrated for 30 minutes at room temperature, and washed three times with FACS buffer (PBS containing 1% BSA). PE/Cy5 Streptavidin secondary antibody was then added to each mixture and incubated for 15 minutes at room temperature. Subsequently, the cells were washed again with FACS buffer and analyzed by flow cytometry. Data was analyzed with PRISM™ (GraphPad Software, San Diego, Calif.) using non-linear regression, and IC₅₀ values were calculated.
# [3] = biological target: T3, human LAG-3 expressed on CHO cells; assay: FACS on CHO cells expressing human LAG-3; column LAG-3 / Cell binding (EC50 nM)
# Protocol: as §1, with “and” for “and the mixture was”, “Data was” for “Data were”
# His-tagged LAG-3 protein = biological target: T4, His-tagged LAG-3 protein; assay: SPR (BIACORE T200), His-tagged LAG-3 as analyte over immobilized binder; column LAG-3 / Affinity (nM)
# Text: Binding curves at different analyte concentrations were used to calculate the kinetic parameters kₒₙ, koff and Kd (FIGS. 14A-14K).
# [4] = biological target: T5, LAG-3 Fc fusion protein having a …; assay: FACS competition, binding of biotinylated LAG-3 Fc to MHC class II on A375 cells blocked; column LAG-3 / Ligand competition (IC50 nM)
# Protocol: as §2
EC50 [1],Kd (His-tagged TIGIT protein),IC50 [2],EC50 [3],Kd (His-tagged LAG-3 protein),IC50 [4],Binder
4.99 nM,0.44 nM,8.61 nM,–,–,–,"AS19584VH28 HCAb (antibody, human IgG4 S228P, V domains shown, positive control for TIGIT; also called anti-TIGIT AS19584VH28 HCAb) VH: EVQLVESGGGLVQPGGSLRLSCAASGYKYGVYSMGWFRQAPGKGLEGVSAICSGGRTTYSDSVKGRFTISRDNSNQILYLQMNSLRAEDTAVYYCAARPLWTGDCDLSSSWYKTWGQGTLVTVSS"
–,–,–,1.82 nM,0.45 nM,11 nM,"VHH2 HCAb (antibody, human IgG4 S228P, V domains shown, positive control for LAG-3; also called anti-LAG-3 VHH2 HCAb) VH: EVQLVESGGGLVQPGGSLRLSCAASGYTVSSYCMGWFRQAPGKGREGVSAIDSDGSVSYADSVKGRFTISKDNSKNTLYLQMNSLRAEDTAVYFCAADLCWVDQDQGEYNTWGQGTLVTVSS"
